Assay: soluble on expression in E. coli; label from the status in PepcDB or PDB records

Sequence | soluble on expression in E. coli
MSLKITAVKCILLSCPYAIPGDLEREFCFADGHRTISVIKVETDEGIHGLGETYIGVFAPEATQAIVRQLEVDLVGRDPMDTAGIANILKLATYYWGRFGMSASIAGGIEMALWDLKGKALGVPVHQLLGGKVHDHIPAYASGGNNKPFPELKKELLGYKKLGFGAVKIRINYLEPHEIIEKVAYSREVLGDKTGLGVDACQGVNPKAWNYKEAIGIVRSLEPYKLLFVEEPCEVTDYKGFAKIRAETDCVIAGGETVSSLVEAENYLEAGALDLFQPDAAIIGGISAFRRVAQMCERKFIKLAVHTWAGGVGIMGNYHAAFASPNCTLLELPNNPFPLREEFLVQPLTLVNGGIAAPTAPGLGVEGHHHHHH | soluble
MSLSPEGVNGNRCSESFPLLEKYRIGKVIGDGNFAVVKECVDRYTGKEFALKIIDKAKCCGKEHLIENEVSILRRVKHPNIIMLVEEMETATDLFLVMELVKGGDLFDAITSSTKYTERDGSAMVYNLANALRYLHSLSIVHRDIKPENLLVCEYPDGTKSLKLGDFGLATVVEGPLYTVCGTPTYVAPEIIAETGYGLKVDVWAAGVITYILLCGFPPFRSENNLQEDLFDQILAGKLEFPAPYWDNITDSAKELISQMLQVNVEARCTAGEILSHPWVSDDASQENNMQAEVTGKLKQHFNNALPKQNSTTTGVSVIMNTALDKEGQIFCSKLCQDSSRPSREGHHHHHH | not soluble
MAAAAKPNNLSLVVHGPGDLRLENYPIPEPGPNEVLLRMHSVGICGSDVHYWEYGRIGNFIVKKPMVLGHEASGTVEKVGSSVKHLKPGDRVAIEPGAPRENDEFCKMGRYNLSPSIFFCATPPDDGNLCRFYKHNAAFCYKLPDNVTFEEGALIEPLSVGIHACRRGGVTLGHKVLVCGAGPIGMVTLLVAKAMGAAQVVVTDLSATRLSKAKEIGADLVLQISKESPQEIARKVEGQLGCKPEVTIECTGAEASIQAGIYATRSGGTLVLVGLGSEMTTVPLLHAAIREVDIKGVFRYCNTWPVAISMLASKSVNVKPLVTHRFPLEKALEAFETFKKGLGLKIMLKCDPSDQNP | not soluble
MQTETIHNIPYVNSNLTSFIDYLEKHYIDQKIGAVISTVNPEIAFAAIKDRDYFDVLSSSNFILPDGIGVVMMSRLTNNRLQSRIAGYDVFKELLGVANKKKKRIFLYGAKKDVIKGVVSKISSEYPNIKIAGYSDGYVQDRTLVAKQIARANPDMVFVALGYPHQEKFIHNYRHLFPKAVSIGLGGSFDVFSGNVKRAPSWMIRLNLEWFYRLILNPWRWKRMLSIPKYALTVLKEEKNKKTFYPKPEKDHTKQI | not soluble
QALQTLVEKISIVFFQKPFLHQATFNRRLKTTGGRYHLASHHLDFNPTVFLKYGQEELEKVIKHELCHYHLHLAGKGYQHKDKDFKELLAKTGGARYAPPLVERKKAVFHQYQCQSCGEVILRKRRIDTTRYVCGKCHGRLSWQ | not soluble
MEALGKTILASDDINSIKKNLAKHIVHLNEENEKYRNEIKLLKKNKDINNQILFTLNKTEISSDMIDSLFMQTKNVIIQVTNKKY | not soluble
MKPVQLTVDNIAKAIFTVNRHAKTALNPSFLYLLKKKAIEKLLEEGKAKKVGLHFSRNPKYSQQQSDVLVAVGDYYFHIPPTKQDFAALPHLGSLNDSYRNPPARMPLSEAKAILIAYTGLREKPEQKPKRLTRPVFKRLGDRY | not soluble
MGSDKIHHHHHHMKAVRVHILGSGGREHAIGWAFAKQGYEVHFYPGNAGTKRDGTNHPYEGEKTLKAIPEEDIVIPGSEEFLVEGVSNWRSNVFGPVKEVARLEGSKVYAKRFMKKYGIRTARFEVAETPEELREKIKKFSPPYVIKADGLARGKGVLILDSKEETIEKGSKLIIGELIKGVKGPVVIDEFLAGNELSAMAVVNGRNFVILPFVRDYKRLMDGDRGPNTGGMGSWGPVEIPSDTIKKIEELFDKTLWGVEKEGYAYRGFLYLGLMLHDGDPYILEYNVRLGDPETEVIVTLNPEGFVNAVLEGYRGGKMEPVEPRGFAVDVVLAARGYPDAPEKGKEITLPEEGLIFFAGVAEKDGKLVTNGGRVLHCMGTGETKEEARRKAYELAEKVHFEGKTYRRDIAL | soluble
MSLAATNKRHSTSDKMHFPRSSLQPITTLGKSEFGEVFLAKAQGLEEGVAETLVLVKSLQSKDEQQQLDFRRELEMFGKLNHANVVRLLGLCREAEPHYMVLEYVDLGDLKQFLRISKSKDEKLKSQPLSTKQKVALCTQVALGMEHLSNNRFVHKDLAARNCLVSAQRQVKVSALGLSKDVYNSEYYHFRQAWVPLRWMSPEAILEGDFSTKSDVWAFGVLMWEVFTHGEMPHGGQADDEVLADLQAGKARLPQPEGCPSKLYRLMQRCWALSPKDRPSFSEIASALGDSTVDSKEGHHHHHH | soluble
MGFWCRMSENQEQEEVITVRVQDPRVQNEGSWNSYVDYKIFLHTNSKAFTAKTSCVRRRYREFVWLRKQLQRNAGLVPVPELPGKSTFFGTSDEFIEKRRQGLQHFLEKVLQSVVLLSDSQLHLFLQSQLSVPEIEACVQGRSTMTVSDAILRYAMSNCGWAQEERQSSSHLAKGDQPKSCCFLPRSGRRSSPSPPPSEEKDHLEVWAPVVDSEVPSLESPTLPPLSSPLCCDFGRPKEGTSTLQSVRRAVGGDHAVPLDPGQLETVLEK | soluble
SKFGKSLSNQIEQTLPEWQDKFLSYKELKKRLKLIGSKTADRPVKRLRLDEFSVGISKEEINFIQLLEDELEKFNNFFVEKEEEYIIRLKEFRDRIAKAKDSMEKMIKIRKEIVDFHGEMVLLENYSALNYTGLVKILKKYDKRTGDLMRLPFIQKVLQQPFYTTDLLFKLVKESEAMLDQIFPANETESEIIQAELSEHKFMESLHMKSTIAALRVLKEIRSGSSTVSVFSLPPLQLNGLDETWKKIPLLEQEAK | soluble
MAHHHHHHMFPASGSGPGVAGSALKGFKGMHHKPPNYPYPYVVGVDGAGEVESVGRKVTGLKAGDRVMFHSSLTNAHGGSLCEYAVMEESVAVPIPADGARPFSYEEAAAIPCATWTAYVALFDKLRIEPGRSIFVDGASGAVGSCAVQLAHHMGLYVFASCSPSNADYVRSIGADQVLNYHDGIEMVDQILDATEGYGVDYYLAVTNTQDAESFTDALRFGGAVCLLSGVLIPNSNVLFRRQLSVHYVFLNGLHGHPLTRPQLRYIGDQVAKLYQSGAFRLDVEVLPFAEAAKALDRSATGNVNHKKLIVQVASP | not soluble
HFASTRSFLDTVKLDHAIWKNNIYRLLQSGSFGETVNSHSECRLGQWYYRGDGKAYSQLRSYAQLEAPHKGVHDSGRDAMNHAKSGNMAGMVTSINSMEDTSEQVVIHIDRLMDEIIAN | not soluble
MSLKMANPKYKRILIKLSGEALAGERGVGIDIQTVQTIAKEIQEVHSLGIEIALVIGGGNLWRGEPAAEAGMDRVQADYTGMLGTVMNALVMADSLQQVGVDTRVQTAIAMQQVAEPYVRGRALRHLEKGRIVIFGAGIGSPYFSTDTTAALRAAEIEADAILMAKNGVDGVYNADPKKDKTAVKFEELTHRDVINKGLRIMDSTASTLSMDNDIDLVVFNMNQSGNIKRVVFGENIGTTVSNNIEEKEEGHHHHHH | soluble
MSLKEELLEAIYGTVERLEQKVDELSASPKNTEAESTPVSVSVDTSKLEKAILAMAVKEGEAIDKLVRLREAICIFTDLTKKEASKDEQRSKLLFDTINQVKQELNATSKNVQDKLHAMDNAPLKKVVTHRFEPTSKYVLLFIGGLALSLVISIWGNLAQWREYQAWEVADLKYRALKMVLPSDDPNVRYIEKHFSVCRDEKVIDDVRNCVAAYEDSIRHHHEMVEMATYKDSIANKLLQESNRIIRAMKSSKEGHHHHHH | not soluble
KTVINVVLQEDTQILDEVVVTALGLKREQKALGYAVTEVKGDDLKAANTISPVAALQGKVAGVEIRQSDGGMFGATKIQIRGASTLKGNNQPIYVIDGVILDNSTSGNTTMDWDAGNNNANDYGNELKNLNPDDFETVSVLKGAAATALYGSRGLNGAVVITTKSGKG | not soluble
MVLIDTEYVRAVVHNVGHRARCGVASKVRALKLAHSQARLRSYSQACERASYIDGRCEYYPSLDVASSSRNSEMLNSGFFDGYSWNTPNIQSQSSSDVTAKTELRRLMTETSEDPIHKEDSETLRRLIMWQEFRDAGVDVNTTQPGYGYGIEAKVEPFPQKLQNYESIHLETRRSSCPSFGTQLYNEPIYEGDEDPLGLGITPPVVTKTSGSLSNNGLDGINLNWKSIPAPVHQMQQHNANGDFVAAWPQNTIEKPTVGPLDKLQKQFEDIKLISISSGENTPTTRSKADEWLDDVLRVSMSMSPTSPSSDPPSTSSYSVLPKSGPPPAHAPPPLPVRQAVSNGSPSIYQQQLQQANSTRNSPAGINWNSSPNPMKISQPPAKPVDPFDVQWSRLAVNNTH | not soluble
MSLMTSVVPSFCHQDRRSNQRMKGLSPLAMAQVVTLGVLEPRAQGAVRWRRCWPERSTVGAIEAQRHWRPYLELSWAEKQQRDERQSQRASRVREEMFAKGQPLAPYNTTQFLMNDRDLEEPNLDVLHGPSHSGSGGENEAGDSDGQGRAHGEFQQRDFSEAYERYHTESLQGRSKQELVRDYLDLERRLSQAEQETRRLRQLQGCSSRQPCQQVEELAAEVERLRTENQRLRQENEMWNREGGYCDQEKPASEGTPWPKVEAPFQTHTGQLGHREAGDR | soluble
MSLGDSETIRILVSTDNHVGYNERDPIRGDDSWKSFHEVMCLAKQHDVDMVLLAGDLFHENKPSRKSMYQVMRSIRMNCLGDKPCELQLLSDASENFQGAFNHVNYEDLDINVGIPIFSIHGNHDDPSGEGHLAALDILQVSGLLNYYGRTPESDNIQLKPVLLQKGRTKLALYGMSNVRDERLFRTFRDGKVKFFRPSVQKEDWYNLICVHQNHHAYTETGYLPENFLPEFLDLVIWGHEHECLINPREGHHHHHH | soluble
MSSDGEQDEENPILARHRREKKELRGKILAKKKAAKCGNKQMQKEAGAECEKMEKEMDERHKKELEEAKKPEESEAVPAENPEASTLSPPSPNPEGSDNDGEGPSSSAFYKTVKISNKAAKKQDKKKKTADKMKAAEAADKEAGKNQLSDRQMEKAAVKEMLAEDHMKMIDIPADGDCMYNAISHQLQEEGIEISVRKLRKRCGTYMREHSEDFRPFIEDMANMDSDSSWATYLGGVENVAEIGGVWGGELELKACSMIFEKTIVVYKQYGGRHTIGEEYSSPKDRALRVVFLRHAYSLGEHYNSTCPY | soluble
MASKPLQFVVVERKLNVGKNAGKVMQIARPTGRHRVDFRSFCERVSKSTTFNRQEVEAVLNYATEIAKDIVSNGDIVEFGDLGTLMPSFKSKAVEQGVKFNANVHIEKPVVLFQPSKKYFTLTDVSYEQTTARPKKGTKPAPKPDTGSGGNSGEGI | not soluble
MLPGTFFEVLKNEGVVAIATQGEDGPHLVNTWNSYLKVLDGNRIVVPVGGMHKTEANVARDERVLMTLGSRKVAGRNGPGTGFLIRGSAAFRTDGPEFEAIARFKWARAALVITVVSAEQTK | soluble
MASISRARQVELLLVADASMARKYGRGLQHYLLTLASIANRLYSHASIENHIRLAVVKVVVLGDKDKSLEVSKNAATTLKNFCKWQHQHNQLGDDHEEHYDAAILFTREDLCGHHSCDTLGMADVGTICSPERSCAVIEDDGLHAAFTVAHEIGHLLGLSHDDSKFCEETFGSTEDKRLMSSILTSIDASKPWSKCTSATITEFLDDGHGNCLLDLPRKQI | soluble
MKQTNPFVYSNDNKRYHTWNYCLREEFGQKTYKVALDGGFDCPNRDGTVAHGGCTFCSAAGSGDFAGNRALDLKVQFQQVRDKMQTKWKDGKCIAYFQAFTNTHAPVAELREKFETVLNEPGVVGLSIATRPDCLPDDVVEYLAELNERTYLWLELGLQSAHDETGRLINRAHDYDCYLEGVRKLQKHNIRICTHIINGLPKETPEMMMETAQKVVESGVDGIKIHLLHLLKGTPMVEDYKKGDLEFLTRDGYVNLVADQLEILPPEMVIHRITGDGGVDDLIGPVWSLNKFEVLNAIDAELVRRDSWQGKLYQPVEVSSK | not soluble

— the DeepSol protein solubility set
